The results in this text go back to patent US20250277030A1 (Zymeworks, published 2025).

Read-outs that look alike come from different tables or passages of the source.

The target of assay [1] is T1, human sodium-dependent phosphate transporter 2B (NaPi2b) (human, UniProt O95436 1-690).
T1 construct: UniProt ID is given as 095436 [sic]; also called hNaPi2b; Hu NaPi2b
T1 sequence: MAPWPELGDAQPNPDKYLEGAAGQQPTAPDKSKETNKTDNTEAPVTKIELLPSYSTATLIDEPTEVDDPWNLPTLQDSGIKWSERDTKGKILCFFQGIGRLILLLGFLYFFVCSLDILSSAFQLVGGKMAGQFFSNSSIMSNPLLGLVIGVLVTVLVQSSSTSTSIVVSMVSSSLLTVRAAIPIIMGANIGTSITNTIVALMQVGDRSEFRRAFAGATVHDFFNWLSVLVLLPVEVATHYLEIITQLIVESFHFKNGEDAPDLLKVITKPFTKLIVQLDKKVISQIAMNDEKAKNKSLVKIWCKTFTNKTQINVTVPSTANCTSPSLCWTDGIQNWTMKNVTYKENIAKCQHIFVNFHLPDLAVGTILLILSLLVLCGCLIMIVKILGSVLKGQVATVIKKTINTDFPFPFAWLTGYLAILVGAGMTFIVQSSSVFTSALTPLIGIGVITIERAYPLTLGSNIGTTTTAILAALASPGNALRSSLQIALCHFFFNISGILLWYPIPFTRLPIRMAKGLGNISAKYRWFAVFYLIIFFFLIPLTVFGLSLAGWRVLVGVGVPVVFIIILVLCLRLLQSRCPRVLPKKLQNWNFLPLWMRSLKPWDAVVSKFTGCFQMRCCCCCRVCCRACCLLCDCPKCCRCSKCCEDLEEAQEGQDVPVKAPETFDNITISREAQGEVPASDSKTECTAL
The assay can be described thus: flow cytometry, HEK293-6e cells transfected with human NaPi2b. The procedure: (§1) The binding cross-reactivity of humanized antibody variant v29456 to human, cynomolgus and mouse NaPi2b was assessed by flow cytometry using HEK293-6e transfected cells.
(§2) Briefly, HEK293-6e cells were transfected for ˜24 hours to transiently express human NaPi2b, cynomolgus or mouse NaPi2b, at 1 μg of DNA per 1 million cells. Following transfection, 50,000 cells per well were seeded in V-bottom 96-well plates and incubated with 200 nM of primary antibody for 18-24 hours at 4° C. to prevent internalization. Post-incubation, cells were washed and stained with anti-Human IgG Fc AF647 conjugate (Jackson Immuno Research Labs, West Grove, PA, Cat. No. 109-605-098, Lot. No. 124868) at 4° C. for 1 hour. Following staining and washing, fluorescence was detected by flow cytometry on BD LSRFortessa™ Cell Analyzer (BD Biosciences, Franklin Lake, NJ) with 10,000 minimum events collected per well. The AF647/APC-A GeoMean (fluorescence signal geometric mean, proportional to anti-Human AF647 binding) was calculated for the live singlet cell population for each primary antibody using FlowJo™ v8 software (BD Biosciences, Franklin Lake, NJ). The Bmax and Kd of each primary antibody were calculated using GraphPad Prism Version 9 (GraphPad Software, San Diego, CA)
On the technique in general: In flow cytometry, cells or beads pass a laser one at a time.

Assay [2] deals with T2, cynomolgus monkey NaPi2b (cynomolgus monkey, UniProt O95436 1-690 (human entry)).
T2 construct: Transiently expressed on HEK293-6e cells; also called Cyno NaPi2b
T2 chain: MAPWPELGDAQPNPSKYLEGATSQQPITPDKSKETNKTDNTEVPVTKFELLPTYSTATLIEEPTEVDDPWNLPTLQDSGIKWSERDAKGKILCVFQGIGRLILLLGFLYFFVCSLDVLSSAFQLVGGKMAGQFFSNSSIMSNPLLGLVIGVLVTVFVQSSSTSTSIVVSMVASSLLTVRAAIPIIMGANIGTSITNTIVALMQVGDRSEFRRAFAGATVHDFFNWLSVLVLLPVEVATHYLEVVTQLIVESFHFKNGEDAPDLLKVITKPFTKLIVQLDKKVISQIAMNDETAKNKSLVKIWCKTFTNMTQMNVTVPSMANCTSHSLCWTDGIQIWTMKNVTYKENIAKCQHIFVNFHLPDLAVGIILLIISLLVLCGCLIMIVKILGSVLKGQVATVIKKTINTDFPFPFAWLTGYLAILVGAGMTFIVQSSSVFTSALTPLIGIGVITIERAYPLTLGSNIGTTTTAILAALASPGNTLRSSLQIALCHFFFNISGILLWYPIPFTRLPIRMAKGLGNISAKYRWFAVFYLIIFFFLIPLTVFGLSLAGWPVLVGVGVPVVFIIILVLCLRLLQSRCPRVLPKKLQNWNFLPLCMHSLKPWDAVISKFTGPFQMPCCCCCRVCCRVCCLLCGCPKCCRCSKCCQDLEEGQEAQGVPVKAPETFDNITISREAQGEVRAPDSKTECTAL
In words: flow cytometry, HEK293-6e cells transfected with cynomolgus NaPi2b. Here is the method: as §1, §2

Assay [3] has as its target T1, human sodium-dependent phosphate …. In words: flow cytometry, HEK293-6e cells transfected with human NaPi2b; apparent Kd. Here is the method: as §1, §2
The target is the same in assay [4]. Described as above. The procedure:
The binding cross-reactivity of humanized antibody variant v38591 to human NaPi2b, NaPi2a, and NaPi2c was assessed by flow cytometry using HEK293-6e transfected cells.
Following transfection, cells were seeded at 50,000 cells/well in conical-bottom 96-well plates and treated with test antibody for 24 hours at 4° C. to prevent internalization. Following incubation, cells were washed and stained with anti-Human IgG Fc AF647 conjugate (Jackson Immuno Research Labs, West Grove, PA; Cat. No. 109-605-098) or anti-Rabbit IgG F(ab″)2 AF647 conjugate (Jackson Immuno Research Labs, West Grove, PA; Cat. No. 111-605-047). Following incubation and washing, fluorescence was detected by flow cytometry on a BD LSRFortessa™ Cell Analyzer (BD Biosciences, Franklin Lake, NJ) with 1,000 minimum events collected per well. The AF647/APC-A GeoMean (fluorescence signal geometric mean, proportional to anti-Human AF647 binding) was calculated for the live cell population using FlowJo™ Version 10.8.1 (BD Biosciences, Franklin Lake, NJ) and plotted for each test antibody using GraphPad Prism Version 9 (GraphPad Software, San Diego, CA).
This is another data set of the same source.

Assay [5] concerns the target T2, cynomolgus monkey NaPi2b. In words: flow cytometry, HEK293-6e cells transfected with cynomolgus NaPi2b; apparent Kd. The procedure:
as §1, §2

In assay [6] the target is T3, mouse NaPi2b (mouse, UniProt Q9DBP0 1-697).
T3 construct: Transiently expressed on HEK293-6e cells; also called Ms NaPi2b
T3 sequence: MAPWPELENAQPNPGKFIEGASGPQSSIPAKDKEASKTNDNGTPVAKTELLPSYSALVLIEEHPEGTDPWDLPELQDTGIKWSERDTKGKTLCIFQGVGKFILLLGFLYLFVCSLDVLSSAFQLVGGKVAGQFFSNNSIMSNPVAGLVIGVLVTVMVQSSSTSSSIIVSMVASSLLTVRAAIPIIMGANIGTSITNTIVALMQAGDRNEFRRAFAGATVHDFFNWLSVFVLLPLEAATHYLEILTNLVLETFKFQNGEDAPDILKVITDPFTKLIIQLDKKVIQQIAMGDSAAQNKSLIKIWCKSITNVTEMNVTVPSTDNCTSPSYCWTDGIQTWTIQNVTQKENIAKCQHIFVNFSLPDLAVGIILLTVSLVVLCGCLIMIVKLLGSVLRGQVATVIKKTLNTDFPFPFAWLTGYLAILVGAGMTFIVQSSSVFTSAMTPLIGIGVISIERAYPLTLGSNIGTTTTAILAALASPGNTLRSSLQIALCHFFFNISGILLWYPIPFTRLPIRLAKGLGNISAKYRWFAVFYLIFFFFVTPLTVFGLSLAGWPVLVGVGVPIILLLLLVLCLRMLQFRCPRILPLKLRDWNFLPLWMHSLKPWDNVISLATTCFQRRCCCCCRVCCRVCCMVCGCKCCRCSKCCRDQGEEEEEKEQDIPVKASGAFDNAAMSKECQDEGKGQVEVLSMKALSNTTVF
The assay can be described thus: flow cytometry, HEK293-6e cells transfected with mouse NaPi2b; apparent Kd above the highest concentration tested.

The target in assay [7] is T3, mouse NaPi2b. In words: flow cytometry on HEK293-6e cells transiently expressing mouse NaPi2b, 4 C, anti-human IgG Fc AF647 detection.
In assay [8] the target is T2, cynomolgus monkey NaPi2b. The assay can be described thus: flow cytometry on HEK293-6e cells transiently expressing cynomolgus NaPi2b, 4 C, anti-human IgG Fc AF647 detection.

B1: v18992, reference anti-NaPi2b antibody MX35 (antibody, human IgG1, kappa)
heavy 1: GQVQLVQSGAEVVKPGASVKMSCKASGYTFTGYNIHWVKQAPGQGLEWIGAIYPGNGDTSYKQKFRGRATLTADTSTSTVYMELSSLRSEDSAVYYCARGETARATFAYWGQGTLVTVSSASTKGPSVFPLAPSSKSTSGGTAALGCLVKDYFPEPVTVSWNSGALTSGVHTFPAVLQSSGLYSLSSVVTVPSSSLGTQTYICNVNHKPSNTKVDKKVEPKSCDKTHTCPPCPAPELLGGPSVFLFPPKPKDTLMISRTPEVTCVVVDVSHEDPEVKFNWYVDGVEVHNAKTKPREEQYNSTYRVVSVLTVLHQDWLNGKEYKCKVSNKALPAPIEKTISKAKGQPREPQVYVYPPSRDELTKNQVSLTCLVKGFYPSDIAVEWESNGQPENNYKTTPPVLDSDGSFALVSKLTVDKSRWQQGNVFSCSVMHEALHNHYTQKSLSLSPG
heavy 2: not shown
light: GDIQMTQSPSSLSASVGDRVTITCSASQDIGNFLNWYQQKPGKTVKVLIYYTSSLYSGVPSRFSGSGSGTDYTLTISSLQPEDFATYYCQQYSKLPLTFGQGTKLELKRTVAAPSVFIFPPSDEQLKSGTASVVCLLNNFYPREAKVQWKVDNALQSGNSQESVTEQDSKDSTYSLSSTLTLSKADYEKHKVYACEVTHQGLSSPVTKSFNRGEC
For B1, the “Bmax (APC-A GeoMean)” value in assay [1] came out at 1900 APC-A GeoMean; in the assay with cynomolgus monkey NaPi2b [2] it was 2360 APC-A GeoMean. The Kd in assay [3] was 1.98 nM; in assay [4] it was 1.51 nM; with cynomolgus monkey NaPi2b [5] it was 31 nM; in the assay with mouse NaPi2b [6] it was more than 200 nM.

B2: v22277, palivizumab (anti-RSV) negative control (antibody, human IgG1, kappa)
heavy 1: GQVTLRESGPALVKPTQTLTLTCTFSGFSLSTSGMSVGWIRQPPGKALEWLADIWWDDKKDYNPSLKSRLTISKDTSKNQVVLKVTNMDPADTATYYCARSMITNWYFDVWGAGTTVTVSSASTKGPSVFPLAPSSKSTSGGTAALGCLVKDYFPEPVTVSWNSGALTSGVHTFPAVLQSSGLYSLSSVVTVPSSSLGTQTYICNVNHKPSNTKVDKKVEPKSCDKTHTCPPCPAPELLGGPSVFLFPPKPKDTLMISRTPEVTCVVVDVSHEDPEVKFNWYVDGVEVHNAKTKPREEQYNSTYRVVSVLTVLHQDWLNGKEYKCKVSNKALPAPIEKTISKAKGQPREPQVYVYPPSRDELTKNQVSLTCLVKGFYPSDIAVEWESNGQPENNYKTTPPVLDSDGSFALVSKLTVDKSRWQQGNVFSCSVMHEALHNHYTQKSLSLSPG
heavy 2: not shown
light: GDIQMTQSPSTLSASVGDRVTITCKSQLSVGYMHWYQQKPGKAPKLLIYDTSKLASGVPSRFSGSGSGTEFTLTISSLQPDDFATYYCFQGSGYPFTFGGGTKLEIKRTVAAPSVFIFPPSDEQLKSGTASVVCLLNNFYPREAKVQWKVDNALQSGNSQESVTEQDSKDSTYSLSSTLTLSKADYEKHKVYACEVTHQGLSSPVTKSFNRGEC
notes: Heterodimeric Fc form of palivizumab (clones CL_#11009, CL_#11010, CL_#16635); also called neg control
In the case of B2, the binding result with mouse NaPi2b [7] and with cynomolgus monkey NaPi2b [8] was “no binding (tested: about 200 nM)” throughout.
